# Data from patent US20090196872A1.
# Tests used:
# [1] = biological target: M2 truncated peptide NN9 (influenza A virus); test: peptide ELISA, antibody at 10 ug/ml
# [2] = biological target: M2 truncated peptide CM17 (influenza A virus); test: peptide ELISA, antibody at 10 ug/ml
# [3] = biological target: M2 truncated peptide CM15 (influenza A virus); test: peptide ELISA, antibody at 10 ug/ml
# [4] = biological target: M2 truncated peptide NM11 (influenza A virus); test: peptide ELISA, antibody at 10 ug/ml
# [5] = biological target: M2 truncated peptide NM14 (influenza A virus); test: peptide ELISA, antibody at 10 ug/ml
# [6] = biological target: M2 truncated peptide NM17 (influenza A virus); test: peptide ELISA, antibody at 10 ug/ml
# [7] = biological target: M2 truncated peptide NM13 (influenza A virus); test: peptide ELISA, antibody at 10 ug/ml
# [8] = biological target: M2 truncated peptide NM12 (N-terminal 12-amino acid peptide) (influenza A virus); test: peptide ELISA, antibody at 10 ug/ml
# [9] = biological target: M2 truncated peptide NM8 (influenza A virus); test: peptide ELISA, antibody at 10 ug/ml
# [10] = biological target: M2 truncated peptide NM10 (influenza A virus); test: peptide ELISA, antibody at 10 ug/ml
# [11] = biological target: M2 truncated peptide CM13 (influenza A virus); test: peptide ELISA, antibody at 10 ug/ml
# [12] = biological target: M2 truncated peptide CM12 (influenza A virus); test: peptide ELISA, antibody at 10 ug/ml
# [13] = biological target: M2 truncated peptide NM16 (influenza A virus); test: peptide ELISA, antibody at 10 ug/ml
# [14] = biological target: M2 truncated peptide NM7 (influenza A virus); test: peptide ELISA, antibody at 10 ug/ml
# [15] = biological target: M2 truncated peptide CM16 (influenza A virus); test: peptide ELISA, antibody at 10 ug/ml
# [16] = biological target: M2 truncated peptide NN15 (influenza A virus); test: peptide ELISA, antibody at 10 ug/ml
# [17] = biological target: M2 truncated peptide M16 (influenza A virus); test: peptide ELISA, antibody at 10 ug/ml
# [18] = biological target: M2 truncated peptide M12 (influenza A virus); test: peptide ELISA, antibody at 10 ug/ml
# [19] = biological target: M2 truncated peptide M15 (influenza A virus); test: peptide ELISA, antibody at 10 ug/ml
# [20] = biological target: M2 truncated peptide CM14 (influenza A virus); test: peptide ELISA, antibody at 10 ug/ml
# [21] = biological target: M2 peptide (extracellular 23-amino-acid peptide of influenza virus matrix M2 protein) (influenza A virus); test: peptide ELISA, antibody at 10 ug/ml
# [22] = biological target: M2 protein expressed on A/HK/1/68 infected MDCK cells (influenza A virus A/HK/1/68); test: cell-based ELISA, half-saturating antibody concentration; details: remark: other sources report otherwise
binder,measurement,setting,value
human anti-M2 monoclonal antibody C40G1 (antibody) chain 1: QLQLQESGPGLVKPSETLSLTCTVSGGSISSSFYYCGWIRQPPGKGLEWIGSIYYRGSTYYNPSLKSRVTISVDTSKNQFSLKLSSVTAADTAVYYCARRVTMVRGVKGDYFDYWGQGTLVTVSS chain 2: DIQMTQSPSSLSASVGDRVTITCRASQGISSWLAWYQQKPEKVPKSLIYAASSLQSGVPSRFSGSGSGTDFTLTISSLQPEDFATYYCQQYNYYPLTFGGGTKVEIKR,ELISA (OD450),[1],0.13 OD450
same,ELISA (OD450),[2],3.01 OD450
same,ELISA (OD450),[3],0.1 OD450
same,ELISA (OD450),[4],0.15 OD450
same,ELISA (OD450),[5],1.93 OD450
same,ELISA (OD450),[6],2.18 OD450
same,ELISA (OD450),[7],1.82 OD450
same,ELISA (OD450),[8],0.16 OD450
same,ELISA (OD450),[9],0.1 OD450
same,ELISA (OD450),[10],0.11 OD450
same,ELISA (OD450),[11],0.11 OD450
same,ELISA (OD450),[12],0.11 OD450
same,ELISA (OD450),[13],2.17 OD450
same,ELISA (OD450),[14],0.09 OD450
same,ELISA (OD450),[15],1.41 OD450
same,ELISA (OD450),[16],2.67 OD450
same,ELISA (OD450),[17],1.75 OD450
same,ELISA (OD450),[18],1.95 OD450
same,ELISA (OD450),[19],1.93 OD450
same,ELISA (OD450),[20],0.1 OD450
same,ELISA (OD450),[21],2.38 OD450
same,Kd,[22],0.542 nM
human anti-M2 monoclonal antibody L66 (antibody) chain 1: EVQLVESGGGVVRPGGSLRLSCAASGFTFDDYGMSWVRQAPGKGLEWVSGINWNGGSTGYADSVKGRFTISRDNAKNSLYLQMNSLRAEDTALYYCARDRVTMVRGVIMDYYGMDVWGQGTTVTVSS chain 2: QTVVTQEPSLTVSPRGTVTLTCSSSTGAVTSGYYPGWFQLKPGQAPMSLIYSARKKHSWTPARFSGSLLGGKAALTLSGVQPEDEAEYYCLLYYGGAYVFGTGTKVTVLG,ELISA (OD450),[1],0.16 OD450
same,ELISA (OD450),[2],0.14 OD450
same,ELISA (OD450),[3],0.13 OD450
same,ELISA (OD450),[4],0.17 OD450
same,ELISA (OD450),[5],0.16 OD450
same,ELISA (OD450),[6],1.92 OD450
same,ELISA (OD450),[7],0.17 OD450
same,ELISA (OD450),[8],0.12 OD450
same,ELISA (OD450),[9],0.18 OD450
same,ELISA (OD450),[10],0.16 OD450
same,ELISA (OD450),[11],0.15 OD450
same,ELISA (OD450),[12],0.16 OD450
same,ELISA (OD450),[13],2.52 OD450
same,ELISA (OD450),[14],0.18 OD450
same,ELISA (OD450),[15],0.13 OD450
same,ELISA (OD450),[16],0.28 OD450
same,ELISA (OD450),[17],0.27 OD450
same,ELISA (OD450),[18],0.19 OD450
same,ELISA (OD450),[19],0.2 OD450
same,ELISA (OD450),[20],0.13 OD450
same,ELISA (OD450),[21],1.04 OD450
same,Kd,[22],0.531 nM
